Source: the Human Domainome abundance scans (Beltran et al. 2025)
± gives the uncertainty stated by the source.

B1: Zinc finger MYM-type protein 2, residues 463 to 506; numbered along this chain, Q9UBW7 (parent)
chain: IMNCCEQCGEYLPSKGAGNNVLVIDGQQKRFCCQSCVSEYKQVG

Variants of: B1
Assay: abundance fitness (aPCA) (normalised: wild type 0, dead -1); higher = more abundant; growth selection in yeast, the domain comes from the species named
Settings: Homo sapiens

Abundance fitness, by site and new letter:
V21: R -0.264 ± 0.086
Q34: F -0.039 ± 0.13, E 0.087 ± 0.12, G -0.017 ± 0.072, C -0.113 ± 0.11, D 0.013 ± 0.12, H 0.004 ± 0.13, A 0.061 ± 0.075
F31: M -0.267 ± 0.075, A -0.175 ± 0.074, K -0.719 ± 0.27, W -0.498 ± 0.092, R -0.366 ± 0.07, V -0.373 ± 0.081, N -0.392 ± 0.37, G -0.185 ± 0.087, Y -0.144 ± 0.12, H -0.273 ± 0.16, D -0.167 ± 0.096, P -0.223 ± 0.094, L -0.248 ± 0.083, Q -0.119 ± 0.097, S -0.231 ± 0.099
C33: M -0.201 ± 0.12, A -0.017 ± 0.093, D 0.051 ± 0.11, H -0.09 ± 0.12, S 0.024 ± 0.093, R -0.121 ± 0.089, N -0.164 ± 0.18, Q -0.086 ± 0.13, L -0.385 ± 0.097, G -0.023 ± 0.069, T -0.031 ± 0.11, E 0.008 ± 0.082, P -0.342 ± 0.09, F -0.517 ± 0.18
N20: R -0.285 ± 0.086, V -0.019 ± 0.083, H 0.087 ± 0.16, G -0.119 ± 0.082, A -0.037 ± 0.11, W -0.191 ± 0.079, C 0 ± 0.11, M -0.038 ± 0.1, D -0.248 ± 0.48, K -0.209 ± 0.13, Y -0.065 ± 0.12, L -0.103 ± 0.1
C32: E -0.339 ± 0.085, M -0.537 ± 0.12, K -0.439 ± 0.13, L -0.451 ± 0.089, Y -0.634 ± 0.33, G -0.313 ± 0.067, P -0.454 ± 0.1, F -0.653 ± 0.36, S -0.398 ± 0.084, R -0.298 ± 0.073, T -0.433 ± 0.085, N -0.655 ± 0.26, V -0.36 ± 0.077, Q -0.518 ± 0.11, A -0.354 ± 0.076, I -0.71 ± 0.18, W -0.559 ± 0.084
Q28: I -0.038 ± 0.33, L -0.346 ± 0.12, M -0.123 ± 0.15, H 0.117 ± 0.2, V -0.169 ± 0.099, Y -0.305 ± 0.16, C -0.47 ± 0.15, K -0.301 ± 0.18, G -0.239 ± 0.072, A -0.133 ± 0.086, T -0.032 ± 0.1, D 0.189 ± 0.22, N -0.29 ± 0.18, W -0.405 ± 0.094, P -0.065 ± 0.11
I24: R -0.085 ± 0.077, N -0.176 ± 0.2, Q -0.177 ± 0.2, S -0.09 ± 0.084, C -0.124 ± 0.14, F 0.052 ± 0.18, A 0.005 ± 0.094, M -0.122 ± 0.16, T 0.254 ± 0.15, P -0.126 ± 0.16, G -0.066 ± 0.084, K -0.079 ± 0.1, W -0.05 ± 0.083, V -0.088 ± 0.12
K15: V 0.011 ± 0.1, A 0.089 ± 0.077, S 0.114 ± 0.13, H 0.119 ± 0.15, M 0.3 ± 0.19, W -0.124 ± 0.093, L -0.094 ± 0.11, G 0.103 ± 0.075, Y 0.07 ± 0.21, D 0.229 ± 0.18, C -0.012 ± 0.092, P 0.189 ± 0.096
L22: A -0.072 ± 0.088, S -0.164 ± 0.13, Q -0.057 ± 0.13, E 0.015 ± 0.1, C -0.258 ± 0.13, R -0.136 ± 0.083, Y 0.165 ± 0.14, D 0.001 ± 0.17, V -0.016 ± 0.09, G -0.132 ± 0.068, N -0.163 ± 0.41, K -0.073 ± 0.12, F -0.184 ± 0.35, I -0.142 ± 0.18, P -0.059 ± 0.17, W -0.187 ± 0.13
S14: K -0.283 ± 0.16, M -0.361 ± 0.12, F -0.548 ± 0.18, C -0.072 ± 0.16, D 0.241 ± 0.13, T -0.09 ± 0.12, E 0.13 ± 0.19, P 0.33 ± 0.22, G -0.098 ± 0.079, R -0.456 ± 0.089, W -0.454 ± 0.092, L -0.107 ± 0.076, Q -0.123 ± 0.12, Y -0.802 ± 0.33
G26: I -0.296 ± 0.25, Y 0.285 ± 0.28, C -0.059 ± 0.1, Q -0.083 ± 0.12, M -0.384 ± 0.15, E -0.077 ± 0.098, T -0.291 ± 0.1, D 0.183 ± 0.34, L -0.307 ± 0.089, K -0.251 ± 0.1, W -0.337 ± 0.075, A -0.059 ± 0.1, S -0.065 ± 0.096, R -0.255 ± 0.07, V -0.243 ± 0.1
R30: D 0.165 ± 0.12, L 0.177 ± 0.069, G 0.026 ± 0.071, P 0.092 ± 0.089, S 0.111 ± 0.1, T 0.132 ± 0.091, Q 0.193 ± 0.085, M 0.068 ± 0.091, C 0.262 ± 0.17, Y -0.354 ± 0.41, K 0.216 ± 0.17, F -0.088 ± 0.12, E 0.3 ± 0.094, V 0.197 ± 0.075, H -0.464 ± 0.34
